Assay results: patent US20230157952A1, “METHOD FOR IMPROVING THE STABILITY OF A PHARMACEUTICAL COMPOSITION COMPRISING A HIGH PENETRATION DRUG, AND THE PHARMACEUTICAL COMPOSITION OBTAINED THEREFROM” (Techfields Inc., priority 2020, published 2023)
Non-standard residues stand in square brackets, D forms with d. *: point of attachment. Arg(NO2) = N=C(NCCC[C@H](N)C(=O)O)N[N+](=O)[O-]; OiPr = CC(C)O*

Experiment: Effect of pH value on the stability of the solution (purity)
Format: physicochemical
Conditions: for Purity(%) from day 0-14: 25° C.; for Purity(%) at day 1 / Purity(%) at day 30 / Purity(%) at day 90 / Purity(%) at day 180 / Purity(%) at day 360: 5% solution
[1] = 25% ethanol (after multiple recrystalization), pH 3.7, 25° C.
[2] = 25% ethanol with 0.5 equivalent sodium acetate, pH 3.7, 25° C.
[3] = 25% ethanol with 1 equivalent sodium acetate, pH 4.6, 25° C.
[4] = 25% ethanol with 1.5 equivalent sodium acetate, pH 5.6, 25° C.
[5] = 25% ethanol with HCl, pH 2.0, 25° C.
[6] = 25% ethanol with NaOH, pH 7, 25° C.
[7] = 25% ethanol with NaOH, pH 8, 25° C.
[8] = 25% ethanol with HCl, pH 1.0, 25° C.

## CCN(CC)CCOC(=O)c1ccccc1OC(C)=O.O=C(O)/C=C\C(=O)O [A-1, 2-(diethylamino)ethyl acetylsalicylate•maleic acid salt]
Day 14, pH 1.0, 7% in water
  Purity(%) from day 0-14: 59.1 ± 0.4%
Day 14, pH 2.0, 7% in water
  Purity(%) from day 0-14: 78.8 ± 0.3%
Day 14, pH 3.0, 7% in water
  Purity(%) from day 0-14: 90.9 ± 0.2%
Day 14, pH 3.7, 7% in water
  Purity(%) from day 0-14: 94.0 ± 0.3%
Day 14, pH 4.0, 7% in water
  Purity(%) from day 0-14: 94.5 ± 0.2%
Day 14, pH 4.3, 7% in water
  Purity(%) from day 0-14: 94.6 ± 0.3%
Day 14, pH 4.6, 7% in water
  Purity(%) from day 0-14: 94.3 ± 0.2%
Day 14, pH 5.0, 7% in water
  Purity(%) from day 0-14: 86.9 ± 0.3%
Day 14, pH 6.0, 7% in water
  Purity(%) from day 0-14: 78.9 ± 0.3%
Day 14, pH 7.0, 7% in water
  Purity(%) from day 0-14: 57.8 ± 0.4%
Day 14, pH 8.0, 7% in water
  Purity(%) from day 0-14: 16.1 ± 0.4%

## H-Ala-Pro-Gly-Pro-Arg(NO2)—OCH2CH3•HCl salt (H-APGP[Arg(NO2)]-OEt; also: HCl salt)
[1]
  Purity(%) at day 1: 98.1 ± 0.2%
  Purity(%) at day 30: 97.3 ± 0.2%
  Purity(%) at day 90: 95.0 ± 0.1%
  Purity(%) at day 180: 91.2 ± 0.3%
[2]
  Purity(%) at day 1: 98.2 ± 0.1%
  Purity(%) at day 30: 97.4 ± 0.2%
  Purity(%) at day 90: 95.1 ± 0.3%
  Purity(%) at day 180: 91.2 ± 0.3%
[3]
  Purity(%) at day 1: 98.2 ± 0.2%
  Purity(%) at day 30: 97.3 ± 0.2%
  Purity(%) at day 90: 95.0 ± 0.3%
  Purity(%) at day 180: 91.1 ± 0.3%
[4]
  Purity(%) at day 1: 98.1 ± 0.2%
  Purity(%) at day 30: 94.7 ± 0.2%
  Purity(%) at day 90: 91.5 ± 0.3%
  Purity(%) at day 180: 83.7 ± 0.3%
[5]
  Purity(%) at day 1: 97.8 ± 0.1%
  Purity(%) at day 30: 84.2 ± 0.2%
  Purity(%) at day 90: 69.6 ± 0.2%
  Purity(%) at day 180: 39.9 ± 0.3%
[6]
  Purity(%) at day 1: 97.9 ± 0.2%
  Purity(%) at day 30: 55.2 ± 0.3%
  Purity(%) at day 90: 31.3 ± 0.3%
  Purity(%) at day 180: 0%
[7]
  Purity(%) at day 1: 97.5 ± 0.1%
  Purity(%) at day 30: 22.6 ± 0.2%
  Purity(%) at day 90: 0%
  Purity(%) at day 180: 0%
25% ethanol, pH 3.0, 25° C.
  Purity(%) at day 1: 98.1 ± 0.2%
  Purity(%) at day 30: 95.7 ± 0.3%
  Purity(%) at day 90: 92.8 ± 0.3%
  Purity(%) at day 180: 86.0 ± 0.3%

## H-Tyr-Gly-Gly-Phe-Met-OCH(CH3)2•HCl salt
[1]
  Purity(%) at day 1: 98.9 ± 0.2%
  Purity(%) at day 30: 98.3 ± 0.2%
  Purity(%) at day 90: 97.2 ± 0.1%
  Purity(%) at day 180: 95.4 ± 0.1%
  Purity(%) at day 360: 92.3 ± 0.2%
[2]
  Purity(%) at day 1: 98.9 ± 0.1%
  Purity(%) at day 30: 98.4 ± 0.1%
  Purity(%) at day 90: 97.3 ± 0.2%
  Purity(%) at day 180: 95.5 ± 0.2%
  Purity(%) at day 360: 92.5 ± 0.2%
[3]
  Purity(%) at day 1: 98.9 ± 0.2%
  Purity(%) at day 30: 98.4 ± 0.2%
  Purity(%) at day 90: 97.4 ± 0.2%
  Purity(%) at day 180: 95.5 ± 0.2%
  Purity(%) at day 360: 92.4 ± 0.2%
[4]
  Purity(%) at day 1: 98.8 ± 0.2%
  Purity(%) at day 30: 97.2 ± 0.2%
  Purity(%) at day 90: 94.1 ± 0.1%
  Purity(%) at day 180: 88.7 ± 0.2%
  Purity(%) at day 360: 81.1 ± 0.3%
[5]
  Purity(%) at day 1: 98.5 ± 0.1%
  Purity(%) at day 30: 92.1 ± 0.2%
  Purity(%) at day 90: 85.1 ± 0.2%
  Purity(%) at day 180: 71.9 ± 0.2%
  Purity(%) at day 360: 51.8 ± 0.2%
[6]
  Purity(%) at day 1: 98.5 ± 0.3%
  Purity(%) at day 30: 77.9 ± 0.2%
  Purity(%) at day 90: 43.6 ± 0.2%
  Purity(%) at day 180: 24.3 ± 0.3%
  Purity(%) at day 360: 0%
[7]
  Purity(%) at day 1: 98.2 ± 0.2%
  Purity(%) at day 30: 56.2 ± 0.2%
  Purity(%) at day 90: 33.3 ± 0.3%
  Purity(%) at day 180: 5.8 ± 0.3%
  Purity(%) at day 360: 0%
25% ethanol, pH 3.0, 25° C.
  Purity(%) at day 1: 98.7 ± 0.2%
  Purity(%) at day 30: 97.9 ± 0.2%
  Purity(%) at day 90: 95.1 ± 0.1%
  Purity(%) at day 180: 90.9 ± 0.2%
  Purity(%) at day 360: 82.8 ± 0.3%

## H-Val-Pro-Gly-Pro-Arg(NO2)—OCH(CH3)2•HCl salt (H-VPGP[Arg(NO2)]-OiPr; also: HCl salt)
[1]
  Purity(%) at day 1: 98.6 ± 0.2%
  Purity(%) at day 30: 98.1 ± 0.2%
  Purity(%) at day 90: 97.2 ± 0.1%
  Purity(%) at day 180: 95.4 ± 0.1%
  Purity(%) at day 360: 92.1 ± 0.2%
[2]
  Purity(%) at day 1: 98.6 ± 0.2%
  Purity(%) at day 30: 98.2 ± 0.1%
  Purity(%) at day 90: 97.1 ± 0.2%
  Purity(%) at day 180: 95.6 ± 0.2%
  Purity(%) at day 360: 92.0 ± 0.2%
[3]
  Purity(%) at day 1: 98.6 ± 0.2%
  Purity(%) at day 30: 98.2 ± 0.2%
  Purity(%) at day 90: 97.0 ± 0.1%
  Purity(%) at day 180: 95.6 ± 0.2%
  Purity(%) at day 360: 92.1 ± 0.2%
[4]
  Purity(%) at day 1: 98.5 ± 0.2%
  Purity(%) at day 30: 97.0 ± 0.2%
  Purity(%) at day 90: 93.8 ± 0.1%
  Purity(%) at day 180: 88.1 ± 0.2%
  Purity(%) at day 360: 80.1 ± 0.3%
[8]
  Purity(%) at day 1: 98.3 ± 0.2%
  Purity(%) at day 30: 85.0 ± 0.2%
  Purity(%) at day 90: 59.5 ± 0.2%
  Purity(%) at day 180: 43.5 ± 0.3%
  Purity(%) at day 360: 17.6 ± 0.3%
[5]
  Purity(%) at day 1: 98.4 ± 0.2%
  Purity(%) at day 30: 91.7 ± 0.2%
  Purity(%) at day 90: 84.7 ± 0.3%
  Purity(%) at day 180: 71.7 ± 0.3%
  Purity(%) at day 360: 52.7 ± 0.3%
[6]
  Purity(%) at day 1: 98.3 ± 0.3%
  Purity(%) at day 30: 78.1 ± 0.4%
  Purity(%) at day 90: 44.1 ± 0.4%
  Purity(%) at day 180: 25.1 ± 0.4%
  Purity(%) at day 360: 0%
[7]
  Purity(%) at day 1: 98.0 ± 0.3%
  Purity(%) at day 30: 56.3 ± 0.3%
  Purity(%) at day 90: 32.3 ± 0.4%
  Purity(%) at day 180: 3.9 ± 0.4%
  Purity(%) at day 360: 0%
25% ethanol, pH 3.0, 25° C.
  Purity(%) at day 1: 98.5 ± 0.1%
  Purity(%) at day 30: 97.4 ± 0.2%
  Purity(%) at day 90: 94.7 ± 0.1%
  Purity(%) at day 180: 90.7 ± 0.2%
  Purity(%) at day 360: 82.7 ± 0.3%
